# Test results reported in PMC11737852 (2025).
# B1: Myc-USP5 [not stated] / Flag-IRF3 [not stated] (parent complex)
# chain 1: MAELSEEALLSVLPTIRVPKAGDRVHKDECAFSFDTPESEGGLYICMNTFLGFGKQYVERHFNKTGQRVYLHLRRTRRPKEEDPATGTGDPPRKKPTRLAIGVEGGFDLSEEKFELDEDVKIVILPDYLEIARDGLGGLPDIVRDRVTSAVEALLSADSASRKQEVQAWDGEVRQVSKHAFSLKQLDNPARIPPCGWKCSKCDMRENLWLNLTDGSILCGRRYFDGSGGNNHAVEHYRETGYPLAVKLGTITPDGADVYSYDEDDMVLDPSLAEHLSHFGIDMLKMQKTDKTMTELEIDMNQRIGEWELIQESGVPLKPLFGPGYTGIRNLGNSCYLNSVVQVLFSIPDFQRKYVDKLEKIFQNAPTDPTQDFSTQVAKLGHGLLSGEYSKPVPESGDGERVPEQKEVQDGIAPRMFKALIGKGHPEFSTNRQQDAQEFFLHLINMVERNCRSSENPNEVFRFLVEEKIKCLATEKVKYTQRVDYIMQLPVPMDAALNKEELLEYEEKKRQAEEEKMALPELVRAQVPFSSCLEAYGAPEQVDDFWSTALQAKSVAVKTTRFASFPDYLVIQIKKFTFGLDWVPKKLDVSIEMPEELDISQLRGTGLQPGEEELPDIAPPLVTPDEPKGSLGFYGNEDEDSFCSPHFSSPTSPMLDESVIIQLVEMGFPMDACRKAVYYTGNSGAEAAMNWVMSHMDDPDFANPLILPGSSGPGSTSAAADPPPEDCVTTIVSMGFSRDQALKALRATNNSLERAVDWIFSHIDDLDAEAAMDISEGRSAADSISESVPVGPKVRDGPGKYQLFAFISHMGTSTMCGHYVCHIKKEGRWVIYNDQKVCASEKPPKDLGYIYFYQRVAS
# chain 2: MGTPKPRILPWLVSQLDLGQLEGVAWVNKSRTRFRIPWKHGLRQDAQQEDFGIFQAWAEATGAYVPGRDKPDLPTWKRNFRSALNRKEGLRLAEDRSKDPHDPHKIYEFVNSGVGDFSQPDTSPDTNGGGSTSDTQEDILDELLGNMVLAPLPDPGPPSLAVAPEPCPQPLRSPSLDNPTPFPNLGPSENPLKRLLVPGEEWEFEVTAFYRGRQVFQQTISCPEGLRLVGSEVGDRTLPGWPVTLPDPGMSLTDRGVMSYVRHVLSCLGGGLALWRAGQWLWAQRLGHCHTYWAVSEELLPNSGHGPDGEVPKDKEGGVFDLGPFIVDLITFTEGSGRSPRYALWFCVGESWPQDQPWTKRLVMVKVVPTCLRALVEMARVGGASSLENTVDLHISNSHPLSLTSDQYKAYLQDLVEGMDFQGPGES
# Variants of: B1
# Experiment: in situ PLA; HEK293T cells co-transfected for 24 h, then infected with SeV (0.1 MOI) for 6 h; parent: 12; read off a plot
row,Variant,response [complex number/cell]
1,chain 1 C335A,~12
